Earlier results, collected in PMC6232131.

Target: fibrinogen beta (Homo sapiens) (UniProt P02675)
UniProt P02675, sequence (P02675 45-491): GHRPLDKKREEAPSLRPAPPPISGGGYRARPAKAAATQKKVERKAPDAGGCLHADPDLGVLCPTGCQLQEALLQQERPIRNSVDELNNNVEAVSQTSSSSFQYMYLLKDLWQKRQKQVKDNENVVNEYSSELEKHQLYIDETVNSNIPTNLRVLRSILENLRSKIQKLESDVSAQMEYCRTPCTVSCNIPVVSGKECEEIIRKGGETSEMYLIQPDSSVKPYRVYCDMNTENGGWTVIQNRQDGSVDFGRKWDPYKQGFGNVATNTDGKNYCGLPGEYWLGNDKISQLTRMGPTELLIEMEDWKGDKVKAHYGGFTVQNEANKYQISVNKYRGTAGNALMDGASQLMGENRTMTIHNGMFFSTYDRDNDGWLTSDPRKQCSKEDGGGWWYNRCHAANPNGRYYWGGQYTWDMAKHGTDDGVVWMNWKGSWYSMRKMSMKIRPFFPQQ

Substance: SdrG N2N3 (from UniProt Q9KI13)
- Kd: 0.4 µM
